Measurements reported in patent publication US20180044429A1 (CELLDEX THERAPEUTICS, published 2018).

How the values were obtained:
[1] = molecular target: T1, recombinant human CD27 (soluble, captured on anti-FLAG coated ELISA plates) (human, UniProt P26842 20-191); experiment: ELISA; CD27 captured on plates coated with anti-FLAG antibody, detection with goat anti-human IgG Fc-HRP; panel title 'Recombinant CD27'
T1 construct: also called rCD27; sCD27
T1 sequence: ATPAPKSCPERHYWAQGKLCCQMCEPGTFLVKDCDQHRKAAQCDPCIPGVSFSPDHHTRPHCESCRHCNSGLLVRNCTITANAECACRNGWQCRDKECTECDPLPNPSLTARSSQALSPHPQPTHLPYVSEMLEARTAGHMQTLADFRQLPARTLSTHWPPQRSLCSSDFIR
Method: In this example, the binding activity of the CD27 agonists prepared as described in Example 2 was examined. Binding to recombinant CD27 (rCD27) was tested by standard ELISA. Human CD27 was captured on ELISA plates coated with anti-FLAG antibody, followed by incubation with CD27 agonists. A goat anti-human IgG Fc-HRP (horseradish peroxidase) antibody and substrate Super Blue TMB were used for detection.
The CD27 agonists tested were 1F5mAb-1F5sFv (sFv), 1F5mAb-2C2sFv (sFv) and 1F5mAb-CD70. The full-length, unconjugated IgG form of the anti-human CD27 monoclonal antibodies 1F5 and 2C2 were used as positive controls. Binding to a mutant form of soluble CD27, in which the arginine at position 87 was substituted with alanine (R87A), which is within the 1F5 binding site, was also tested.

[2] = molecular target: soluble recombinant human CD27 with R87A substitution (human) (UniProt P26842); experiment: ELISA; mutated (R87A) CD27 captured on plates coated with anti-FLAG antibody, detection with goat anti-human IgG Fc-HRP; panel title 'mutated CD27'

B1: human anti-human CD27 monoclonal antibody 2C2 (full-length, unconjugated IgG) (antibody, V domains shown)
VH: QVQLVESGGGVVQPGRSLRLSCAASGFTFSSYDIHWVRQAPGKGLEWVAVIWNDGSNKYYADSVKGRFTISRDNSTNSLFLQMNSLRAEDTAVYYCVGGTADLEHWDQGTLVTVSS
VL: DIQMTQSPSSLSASVGDRVTITCRASQGISSWLAWYQQKPEKAPKSLIYAASSLQSGVPSRFSGSGSGTDFTLTISSLQPEDFATYYCQQYNSYPLTFGGGTKVEIK
notes: Tested as full-length unconjugated IgG; also called 2C2 mAb
binding result [1]: binds
EC50 (read off the curve) [2]: 0.02 µg/mL

B2: human anti-human CD27 monoclonal antibody 1F5 (full-length, unconjugated IgG) (antibody, V domains shown)
VH: QVQLVESGGGVVQPGRSLRLSCAASGFTFSSYDMHWVRQAPGKGLEWVAVIWYDGSNKYYADSVKGRFTISRDNSKNTLYLQMNSLRAEDTAVYYCARGSGNWGFFDYWGQGTLVTVSS
VL: DIQMTQSPSSLSASVGDRVTITCRASQGISRWLAWYQQKPEKAPKSLIYAASSLQSGVPSRFSGSGSGTDFTLTISSLQPEDFATYYCQQYNTYPRTFGQGTKVEIK
notes: also called 1F5 mAb; anti-CD27 antibody (1F5)
binding result [1]: binds
